{
  "source": "ChEMBL document CHEMBL2074234",
  "about": "“Functional expression of the canalicular bile salt export pump of human liver” (Gastroenterology, 2002)",
  "format_in_all_cases": "functional, cell membranes, Membrane vesicle",
  "key": {"[1]": {"substrate": "C[C@H](CCC(=O)NCCS(=O)(=O)O)[C@H]1CC[C@H]2[C@@H]3[C@H](O)C[C@@H]4C[C@H](O)CC[C@]4(C)[C@H]3CC[C@]12C", "assay": "(§1) TP_TRANSPORTER: uptake in membrane vesicles isolated from Bsep-expressing Sf9 cells"}, "[2]": {"substrate": "C[C@H](CCC(=O)NCCS(=O)(=O)O)[C@H]1CC[C@H]2[C@@H]3[C@@H](O)C[C@@H]4C[C@H](O)CC[C@]4(C)[C@H]3CC[C@]12C", "assay": "as §1"}, "[3]": {"substrate": "C[C@H](CCC(=O)NCC(=O)O)[C@H]1CC[C@H]2[C@@H]3[C@H](O)C[C@@H]4C[C@H](O)CC[C@]4(C)[C@H]3C[C@H](O)[C@]12C", "assay": "as §1"}},
  "data": [
    {"protein": "Bile salt export pump (Homo sapiens) (protein) MSDSVILRSIKKFGEENDGFESDKSYNNDKKSRLQDEKKGDGVRVGFFQLFRFSSSTDIWLMFVGSLCAFLHGIAQPGVLLIFGTMTDVFIDYDVELQELQIPGKACVNNTIVWTNSSLNQNMTNGTRCGLLNIESEMIKFASYYAGIAVAVLITGYIQICFWVIAAARQIQKMRKFYFRRIMRMEIGWFDCNSVGELNTRFSDDINKINDAIADQMALFIQRMTSTICGFLLGFFRGWKLTLVIISVSPLIGIGAATIGLSVSKFTDYELKAYAKAGVVADEVISSMRTVAAFGGEKREVERYEKNLVFAQRWGIRKGIVMGFFTGFVWCLIFLCYALAFWYGSTLVLDEGEYTPGTLVQIFLSVIVGALNLGNASPCLEAFATGRAAATSIFETIDRKPIIDCMSEDGYKLDRIKGEIEFHNVTFHYPSRPEVKILNDLNMVIKPGEMTALVGPSGAGKSTALQLIQRFYDPCEGMVTVDGHDIRSLNIQWLRDQIGIVEQEPVLFSTTIAENIRYGREDATMEDIVQAAKEANAYNFIMDLPQQFDTLVGEGGGQMSGGQKQRVAIARALIRNPKILLLDMATSALDNESEAMVQEVLSKIQHGHTIISVAHRLSTVRAADTIIGFEHGTAVERGTHEELLERKGVYFTLVTLQSQGNQALNEEDIKDATEDDMLARTFSRGSYQDSLRASIRQRSKSQLSYLVHEPPLAVVDHKSTYEEDRKDKDIPVQEEVEPAPVRRILKFSAPEWPYMLVGSVGAAVNGTVTPLYAFLFSQILGTFSIPDKEEQRSQINGVCLLFVAMGCVSLFTQFLQGYAFAKSGELLTKRLRKFGFRAMLGQDIAWFDDLRNSPGALTTRLATDASQVQGAAGSQIGMIVNSFTNVTVAMIIAFSFSWKLSLVILCFFPFLALSGATQTRMLTGFASRDKQALEMVGQITNEALSNIRTVAGIGKERRFIEALETELEKPFKTAIQKANIYGFCFAFAQCIMFIANSASYRYGGYLISNEGLHFSYVFRVISAVVLSATALGRAFSYTPSYAKAKISAARFFQLLDRQPPISVYNTAGEKWDNFQGKIDFVDCKFTYPSRPDSQVLNGLSVSISPGQTLAFVGSSGCGKSTSIQLLERFYDPDQGKVMIDGHDSKKVNVQFLRSNIGIVSQEPVLFACSIMDNIKYGDNTKEIPMERVIAAAKQAQLHDFVMSLPEKYETNVGSQGSQLSRGEKQRIAIARAIVRDPKILLLDEATSALDTESEKTVQVALDKAREGRTCIVIAHRLSTIQNADIIAVMAQGVVIEKGTHEELMAQKGAYYKLVTTGSPIS", "values": [
      {"measurement": "Km", "setting": "[1]", "value": 4.8, "unit": "µM"},
      {"measurement": "Km", "setting": "[2]", "value": 11.9, "unit": "µM"},
      {"measurement": "Km", "setting": "[3]", "value": 11.1, "unit": "µM"}
    ]}
  ]
}
